Data: article PMC12238573 (Nature Communications, 2025)

Key:
[1] = target: Branchiostoma lanceolatum Class II PRPS (Branchiostoma lanceolatum); test: SEC; lysate of HEK293T cells with exogenously expressed Class II PRPS; fractions analysed by Western blot
[2] = target: the molecule itself; test: SEC; native whole-cell lysates of NIH3T3 AP1 KO and AP1/AP2 KO cells on Yarra SEC-2000 (1 kDa to 300 kDa); fractions analysed by Western blot

Row | stoichiometry N [1] | Molecule | stoichiometry N [2]
1 | 2 to 6 | Branchiostoma lanceolatum Class II PRPS (enzyme) | –
2 | – | PRPS2 (endogenous, mouse) (enzyme, UniProt Q9CS42 1-318, looked up, PRPS2, endogenous in mouse cells and tissues; also called P2; phosphoribosyl pyrophosphate synthetase 2; source: endogenous, NIH3T3 lysate (parental and CRISPR knockout lines); endogenous, C57BL/6 mouse liver, kidney and lung lysates) MPNIVLFSGSSHQDLSQRVADRLGLELGKVVTKKFSNQETSVEIGESVRGEDVYIIQSGCGEINDNLMELLIMINACKIASSSRVTAVIPCFPYARQDKKDKSRAPISAKLVANMLSVAGADHIITMDLHASQIQGFFDIPVDNLYAEPAVLQWIRENITEWRNCIIVSPDAGGAKRVTSIADRLNVEFALIHKERKKANEVDRMVLVGDVKDRVAILVDDMADTCGTICHAADKLLSAGATKVYAILTHGIFSGPAISRINSAAFEAVVVTNTIPQEDKMKHCSKIQVIDISMILAEAIRRTHNGESVSYLFSHVPL | 2
